{
  "source": "paper PMC12613146",
  "molecular_target": "ectodomain of the epidermal growth factor receptor, EGFR25-645 (human)",
  "assay": "BLI; biotinylated ligand (50 nM, 5 min) on streptavidin sensors, DDM proteomicelles of the membrane protein in the wells (six two-fold dilutions); 20 mM Tris-HCl, 300 mM KCl, 0.2% (w/v) DDM, 1 mg/ml BSA, pH 7.5; 22 °C; global fits, KD = koff/kon",
  "note": "Values joined by “and” are separate entries in the source; they are usually repeats but may differ in a detail not shown here. Identical values can stand only once.",
  "data": [
    {"substance": "TGF-α(GGS)2tFhuA", "values": [
      {"measurement": "kon", "result": "2600 M⁻¹ s⁻¹ and 2400 M⁻¹ s⁻¹ and 2500 M⁻¹ s⁻¹"}
    ]}
  ]
}
